{"source": "paper PMC1562422", "origin": "cited, not measured here", "key": {"[1]": {"biological_target": "IL2 receptor β chain (Homo sapiens) (UniProt P14784)", "sequence (P14784 27-240)": "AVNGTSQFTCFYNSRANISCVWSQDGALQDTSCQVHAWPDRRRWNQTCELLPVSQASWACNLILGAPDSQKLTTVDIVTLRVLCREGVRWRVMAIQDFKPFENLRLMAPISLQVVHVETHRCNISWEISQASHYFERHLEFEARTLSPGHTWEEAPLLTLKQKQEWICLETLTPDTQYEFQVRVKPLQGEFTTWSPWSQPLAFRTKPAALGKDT", "experiment": "SPR"}, "[2]": {"biological_target": "IL2 receptor α chain (Homo sapiens) (UniProt P01589)", "experiment": "ITC"}, "[3]": {"biological_target": "IL2 receptor β chain (Homo sapiens) (UniProt P14784)", "experiment": "ITC"}, "[4]": {"biological_target": "IL2 receptor γ chain (Homo sapiens) (UniProt P31785)", "sequence (P31785 23-262)": "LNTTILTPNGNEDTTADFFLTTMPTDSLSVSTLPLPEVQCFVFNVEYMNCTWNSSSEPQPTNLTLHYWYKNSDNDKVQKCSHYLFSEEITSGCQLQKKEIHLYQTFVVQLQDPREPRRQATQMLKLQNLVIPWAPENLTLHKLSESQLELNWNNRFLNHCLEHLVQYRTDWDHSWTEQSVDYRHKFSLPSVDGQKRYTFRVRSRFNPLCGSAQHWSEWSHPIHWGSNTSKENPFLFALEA"}}, "data": [{"substance": "IL2 (from UniProt P60568)", "values": [{"measurement": "Kd", "setting": "[1]", "result": 450, "unit": "nM"}, {"measurement": "Kd", "setting": "[2]", "result": 10, "unit": "nM"}, {"measurement": "Kd", "setting": "[3]", "result": 144, "unit": "nM"}, {"measurement": "Kd", "setting": "[4]", "result": "> 700000", "unit": "nM"}]}, {"substance": "IL2 receptor α chain (from UniProt P01589)", "values": [{"measurement": "Kd", "setting": "[3]", "result": 278, "unit": "nM"}]}]}
